Assay results taken from patent US20230295310A1 (ABCELLERA BIOLOGICS, published 2023).

Biological target: human CD3 (human, UniProt P07766 23-207; P04234 22-171; P09693 23-182)
Assay: cell-based or functional assay

human CD3, sequence (P07766 23-207, chain 1 of 3): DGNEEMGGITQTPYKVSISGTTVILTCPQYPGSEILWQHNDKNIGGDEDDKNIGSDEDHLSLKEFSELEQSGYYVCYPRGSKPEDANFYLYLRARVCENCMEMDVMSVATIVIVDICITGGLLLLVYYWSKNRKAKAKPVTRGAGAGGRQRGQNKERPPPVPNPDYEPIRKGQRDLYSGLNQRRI
human CD3, sequence (P04234 22-171, chain 2 of 3): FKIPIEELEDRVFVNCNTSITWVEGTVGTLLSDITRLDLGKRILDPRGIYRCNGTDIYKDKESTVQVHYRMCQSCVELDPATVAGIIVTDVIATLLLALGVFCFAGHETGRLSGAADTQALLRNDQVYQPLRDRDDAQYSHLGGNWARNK
human CD3, sequence (P09693 23-182, chain 3 of 3): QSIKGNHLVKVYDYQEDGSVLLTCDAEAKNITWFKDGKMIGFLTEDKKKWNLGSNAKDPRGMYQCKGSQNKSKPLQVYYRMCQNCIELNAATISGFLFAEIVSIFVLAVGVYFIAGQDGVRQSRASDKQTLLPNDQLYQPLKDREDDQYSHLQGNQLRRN

Binder | CD4 EC50 (nM); CD69/CD25 on human T cells, plate-coated antibody | CD8 EC50 (nM); CD69/CD25 on human T cells, plate-coated antibody
mAb 141 (antibody, V domains shown) VH: QVQLVQSGAEVKKPGASVKVSCKASGYTFTSYYIHWVRQAPGQGLDWMGIINPSGGITGYAQKLQGRVTMTRDTSTTTVYMELSSLRSDDTAVYYCARGVRGNYYYYYMDVWGKGTTVTVSS VL: EIVLTQSPDFQSVTPKEKVTITCRASQSIGSKLHWYQQKPDQSPKLLIKYASQSFSGVPSRFSGSGSGTDFNLTINSLEAEDAATFYCHQSSGLPYTFGQGTKLEIK | 22.1 nM | 22.8 nM
mAb 145 (antibody, V domains shown) VH: QVQLVQSGAEVKKPGASVKVSCKASGYTFTNYYIHWVRQAPGQGLDWMGIINPSGGITGYAQKFQGRVTMTRDTSTTTVYMELSSLRSDDTAVYYCARGVRGNYYYYYMDVWGKGTTVTVSS VL: EIVLTQSPDFQSVTPKEKVTITCRASQSIGSKLHWYQQKPDQSPKLLIKFASQSFSGVPSRFSGSGSGTDFNLTINSLEPEDAATFYCHQSSGLPYTFGQGTKLEIK | 13.3 nM | 14.9 nM
mAb 42 (antibody, V domains shown) VH: QAQLVQSGSELKKPGASVKVSCKASGYTFTKHSMNWVRQAPGQGLEWMGWINTNTGNPTYAQGFTGRFVFSLDTSVTTAYLQISSLKAEDTAVYYCAREGDYDFWSGFFNFDYWGQGTLVTVSS VL: DIQMTQSPSSLSASVGDRVTITCRASQGIRNDLGWYQQKPGKAPKRLIYAASSLQSGVPSRFSGSGSGAEFTLTISSLQPEDFATYYCLQHNSYPRTFGQGTKVEIK | 25.4 nM | 25.5 nM
mAb 52 (antibody, V domains shown) VH: QVQLVQSGAEVKKPGASVKVSCKASGYTFTSHDINWVRQATGQGLEWMGWLNPNSGKTGYAQKFQGRVTMARDTSMYTADMELSSLRFEDTAVYYCARVGHYDMWPGFFSFDYWGQGTLVTVSS VL: DIQMTQSPSSLSASVGDRIIITCRASQDIRNDLGWYQQKPGKAPKRLIYAASSLQSGVPSRFSGSRSGTEFTLTISSLHPEDFATYYCLQHRSYPYTFGQGTNLEIK | 8.79 nM | 9.48 nM
mAb 50 (antibody, V domains shown) VH: QAQLVQSGSELKKPGASVKVSCKASGYTFTRHAMNWVRQAPGQGLEWMGWINTNTGNPTYAQGFTGRFVFSLDTSVTTAYLQISSLKAEDTAVYYCAREGDYDFWSGFFNFDYWGQGTLVTVSS VL: DIQMTQSPSSLSASVGDRVTITCRASQGIRNDLGWFQQKPGKAPTRLIYAASSLQSGVPSRFSGSGSGAEFTLTISSLQPEDFATYYCLQHNSYPRTFGQGTKVEIK | 26.3 nM | 24.5 nM
mAb 131 (antibody, V domains shown) VH: EVQLVESGGGLVKTGGSLRISCVASGFSFKKAWMNWVRQAPGKGLEWVGRIKRNTDGGTIDYAAPVKGRFSLSRDDSKNTLFLQMNSLKTEDTAVYFCTTLDSSSYYVGYYYMDVWGKGTTVTVSS VL: DIHMTQSPSSVSASVGDRVTITCRASQDINNWLAWYQQKPGKAPKLLIYTASSLQSGVPSRFSGSGSGTDFTLTISSLQPEDFATYFCQQAHSLPITFGQGTRLGIK | 13.3 nM | 13.3 nM
mAb 133 (antibody, V domains shown) VH: EVQLVESGGGLVKTGGSLRLSCVASGFSFKKAWMSWVRQAPGKGLEWVGRIKRNTDGGTADYAAPVKGRFTLSRDDSKKTLFLQMNSLKTEDSAVYYCVTLDSSSYYVGYYYMDVWGKGTTVTVSS VL: DIQMTQSPSSVSASVGDRVSITCRASQDINNWLAWYQQKPGKAPKLLIYTASSLQSGVPSRFSGSGSGTDFTLTIGSLQPEDFATYYCQQAHSLPITFGQGTRLEIK | 13.9 nM | 13.6 nM
mAb 155 (antibody, V domains shown) VH: EVQLVESGGGLVKTGGSLRLSCVASGFSFKKAWMNWVRQAPGKGLEWVGRIKRNTDGGTADYAAPVKGRFTLSRDDSKKTLFLQMNSLKTEDTAVYYCTTLDSSSYYVGYYYMDVWGKGTTVTVSS VL: DIQMTQSPSSVSASVGDRVIITCRASQDINNWLAWYQQKPGKAPKLLIYTASSLQSGVPSRFSGSGSGTDFTLTIGSLQPEDFATYYCQQAHSLPISFGQGTRLDIK | 6.25 nM | 6.29 nM
mAb 132 (antibody, V domains shown) VH: DVQLVESGGGTVKTGGSLRLSCVASGFSFKKAWMNWVRQAPGKGLEWVGRIKKNSDGGTADYAAPVKGRFTISRDDSKKTLYLQMNSLQTEDTAVYYCTTLDSSSWYVGYYYMDVWGKGTTVTVSS VL: DIQMTQSPSSVSASVGDRVIITCRASQDINNWLAWYQQKPGIAPKLLIYTASSLQSGVPSRFSGSGSVSDFTLTIGSLQPEDFATYYCQQAHSLPITFGQGTRLEIK | 6.39 nM | 6.34 nM
mAb 156 (antibody, V domains shown) VH: EVQLVESGGGLVKTGGSLRLSCVASGFSFKKAWMNWVRQAPGKGLEWVGRIKRNTDGGTADYAAPVKGRFTLSRDDSKKTLFLQMNSLKTEDTAVYYCTTLDSSSYYVGYYYMDVWGKGTTVTVSS VL: DIQMTQSPSSVSASVGDRVIITCRASQDINNWLAWYQQKAGKAPKLLIYTASSLQSGVPSRFSGSGSGTDFTLTIGSLQPEDFATYYCQQAHSLPITFGQGTRLEIK | 6.25 nM | 6.25 nM
mAb 157 (antibody, V domains shown) VH: EVQLVESGGGLVKTGGSLRLSCVASGFSFKKAWMNWVRQAPGKGLEWVGRIKRTADGGATDYAAPVKGRFTLSRDDSKNTLYLQMNSLKTEDTAVYYCTTLDSSSWYVGYYYMDVWGKGTTVTVSS VL: DIHMTQAPSSVSASVGDRVTFTCRASQDINNWLAWYQQKPGKAPKLLIYTASSLQSGVPSRFSGSGSGTDFTLTISSLQPEDFATYYCQQAHSLPITFGQGTRLGIK | 6.42 nM | 6.57 nM
mAb 49 (antibody, V domains shown) VH: EVQLVESGGGLVPPGGSLRLSCVASGFTLRSYTMNWVRQAPGQGLEWISYISSTSRTIYYSDSVKGRFTISRDNAKNSLYLQVNSLRDEDTALYYCAREDYYDSSGFDCWGQGTLVTVSS VL: AIRMTQSPSSFSASTGDRVTITCRASQGIFNYLAWYQQKPGKAPKLLIYSTSTLQSGVPSRFSGSGSGTDFTLTIRGLQSEDLATYYCQQYYSFPRTFGQGTKVDIK | 6.76 nM | 6.65 nM
mAb 142 (antibody, V domains shown) VH: QVQLVESGGGVVQPGRSLRLSCAASGFTFSSYGMHWVRQAPGKGLEWVAVIWYDGSNKYYADSVKGRFTISRDNSKNTLYLQMNSLRAEDTAVYYCARTGITGTTAYFYFDSWGQGTLVTVSS VL: not shown | 26.9 nM | 32 nM
mAb 146 (antibody, V domains shown) VH: QVQLVESGGGVVQPGRSLRLSCAASGFTFITYGMHWVRQAPGKGLEWVAVIWYDGSHKYYADSVKGRFTISRDNSKNMLYLQMNSLRVEDTAVYYCARTGITGTTAYFYFDNWGQGTLVTVSS VL: not shown | 12.5 nM | 12.6 nM
mAb 137 (antibody, V domains shown) VH: QVQLVESGGGVVQPGRSLRLSCAASGFTFSTYGMHWVRQAPGKGLEWVAVIWYDGSHKYYADSVKGRFTISRDNSKKTLYLQMNSLRAEDTGIYYCARTGISGNMSYFYFDHWGQGILVTVSS VL: not shown | 13.1 nM | 14.1 nM
mAb 153 (antibody, V domains shown) VH: QVQLVESGGGVVQPGRSLRLSCAASGFTFSTYGMHWVRQAPGKGLEWVAVIWYDGSHKYYSDSVKGRFTISRDNSKNTLYLQMNSLRVEDTAIYYCARTGITGTTAYFYFDSWGQGTLVTVSS VL: not shown | 8.76 nM | 8.56 nM
mAb 140 (antibody, V domains shown) VH: QVQLVESGGGVVQPGRSLRLSCAASGFTFSTYGMHWVRQAPGKGLEWVAVIWYDGSHKYYADSVKGRFTISRDNSKNTLYLQMNSLRAEDTAVYYCARTGITGTTAYFYFDYWGQGTLVTVSS VL: not shown | 13.7 nM | 17.8 nM
mAb 158 (antibody, V domains shown) VH: EVQLVESGGGLVQPGRSLRLSCAASGFTFADYTMHWVRQVPGKGLEWVSGISWNSGSVDYADSVKGRFTISRDNAKKTLYLQMNSLRAEDTALYYCAKDSSGYGHYYFYYLDVWGKGTTVTVSS VL: EIVMTQSPATLSVSPGERATLSCRATQSVSSNLAWYQQKPGQAPRLLIYSTSTRATGIPARFSGSRSGTEFTLTISSLQSEDSAVYYCQQYNNWPHFGQGTRLEIK | 6.67 nM | 6.62 nM
mAb 159 (antibody, V domains shown) VH: EVQLVESGGGLVQPGRSLRLSCAASGFTFNGYTMHWVRQVPGKGLEWVSGISWNSGSVGYADSVKGRFTISRDNAKNSLFLQMNSLRAEDTALYYCAKDSSGYGHYYYYYMDVWGKGTTVTVSS VL: EIVMTQSPATLSVSPGERATLSCRASQSVRNNLAWYQQKPGQAPRLLIYGASTRATGIPARFSGSGSGTEFTLTISSLQSEDFALYYCQLYNNWPHFGQGTRLEIK | 12 nM | 11.9 nM
mAb 160 (antibody, V domains shown) VH: EVQLVESGGGLVQPGRSLRLSCAVSGFTFNDYTMHWVRQVPGKGLEWVSGISWNSGSIGYADSVKGRFTISRDNAKNSLYLQMNSLRAEDTALYFCAKDSSGYGHYYYYYMDVWGRGTTVTVSS VL: EIVMTQSPATLSVSPGERATLSCRASQSVRKNLAWYQQKPGQAPRLLIYGASTRATGIPARFSGSGSGTEFTLTISSLQSEDFAVYYCQLYNNWPHFGQGTRLEIK | 6.95 nM | 8.47 nM
